Measurements reported in the DeepSol protein solubility set.

assay: soluble on expression in E. coli; label from the status in PepcDB or PDB records

Soluble on expression in E. coli, not soluble:
MGSDKIHHHHHHMTTSKRVAIIGAGPSGLAQLRAFQSAAAKGEEIPEIVCFEKQDNWGGLWNYTWRTGLDENGEPVHCSMYRYLWSNGPKEGLEFADYSFEEHFGKQIASYPPRAVLFDYIEGRVLKANVRDWIRFSTAVRWIDYNDETGLFKVTVHDHTNDRVYSEEFDHVICASGHFSTPNVPHYEGFETFNGRLVHAHDFRDAREFAGKDILVVGSSYSAEDIGSQCWKYGAKSITSCYRSAPMGFKWPDNWEEKPALVKVDKNTVFFSDGTSREVDAIILCTGYKHFFNFLPDDLRLKTANRLATADLYKGVVYVHNPKMFYLGMQDQWFTFNMFDAQAWWVRDAIMGKIDLSNVTKEQMLADVTERETREEASDDVKYAIRYQADYVKELVAETDYPSFDIDGACEAFFQWKKHKGEDIMAFRNNSYTSVITGTLAPVHHTPWKDALDDSMEAYLRN
MLLNEASDAIYWVNHKGLITYANPSAQILFGYEEVELKDKSISDLIVSKTDLFSTFSSNIIEEKGVVIQQEFVRKDNSTFYGEMSVRLFDDGSHQAIIRDITKGVIEQRLLLDRERKFKILVENAFDIIIVLSSDFKIKFISPAIKKMLGYEIDSVLGENSNKFIEFRDRVMIKEVLKNHGITYAINDLKLIHKNGQIIHCEVNAVNFLNDPLINGIIVNCHDISKRIQTENELINTNYELDSFVYKVSHDLKAPLRSMLGLINLSQKENTEDTVKLYLDMMVRSIHNMDIFIKDLTQFSRNSRMEVIKESIDFKELITKIENNLKYDDNARFISFERNISQQSLFYSDPNRVETIVSNLLSNAYKYHRFDSNNPYINVKIEVSETAACIVIKDNGSGIADEYHNKIFQMFFRASEKSQGSGLGLYIVKSAIDKLEGTITLHSIPDKESTFTVEIPNLLTR
MGSDKIHHHHHHMGNILWVASYPKSGNTWVRAFLENYIQNQAQPIDINTMHTISTAESAAHRYQHYLPKDKTATTELTLEEVSVLRPQVQADIAHQANGTTFVKTHNYLGEYNGHPLHNSSVTSGAIYVVRNPLDVAISMANYFGYSIDEAIAYMAEEMTGTPNEAPHVPQIITSWSMHVSSWTADDASKLILRYEDMLDDPKKVFRKVESFLGLKKDPVRLKNAIKHSSFAQLKAQETKLGFVEKHENANAFFRNGGKHQWKTKLTPEQVQKIVATHYEQMKRFKYLPAGM
MAPLNYKTITSRSILSKVLVRATQQWPTDKTLNKQLSELYGAYVNSFVSKFKDKHVITISLEVVNEKFLKDKTPLFEKGLDTLKEIIWNPLIKDRCFDHTYVAQEKSLLSKKLEAMEDNKAQYSFLQLMNYMFKQEPYRYIATGQLEQIPQVTSESLYDTYLSMVQNDDCAIYVVGNINKEEVTQLILDKFAIKPFYLENKESTEITPSFDQPQYIIEKDDVDQAKLNLGYRFPSYYGKSNYYAFIVLNMMFGGDPSSVLFNEVREKQSLAYSIHSQIDGKNGFLFVLSGVSAEKYEQAKDTVIKEFDKIKNGDFDSNKIELAKKIIISHRHEASDRPKSIIEILHNQLLLNRQQTDQDFINAVNQVTKKDVIKLANEAVLDTIYVLTKGDQH
MDLALFDLDETLISDDSTGLWIRWLVNEGLAPFELSEQEQTLMTQYYQGQLSMAGYMAATLSPLVGKHTAEVAGWVEHFIAHDILPRIYPQALEKLAWHRDRGDYIVIISASGEHLVTPIAKHFAADTALSIGVTVENDRYTGQTYGTLTYQKGKVDRLNQWLSASPQLNFKRSYGYSDSINDQPLLEYVDHAAVINPGAELIDLAVLHQWDIHHW
MTLMIDENFKKQLAQRRERVEDLFYFENSKEIGRGTYGLVYKAVPKKQNGQFPNKEYALKMIEGQGFSMSACREIALFRELRHPNLICLQRVFLTNEKKVWLLLDYAEHDLWHVIKHHRTAKSKKVPIMVPRNMVKNILFQILSGMHYLHSNWVLHRDLKPANILLMGDGPPDMRGRVKIADLGFSRIYANPLKPMAELDPVVVTFWYRAPELLLGAKHYTKAIDVWAIGCIFAELLTAEPLFFCKEEDIKAQNPYHYDQVKRIFHLLGYPSDADWPDMKKMPDHQRLLSDARNEGTPIQTFPNSLHRYFDKWKINSQSSPYRLLVKLLTVDPTKRVSCEEAMNDIYFRKMERPPRETDDVFNKYPIPYAKKEQQMTVAPDQAQQQHQQQQVQMQQQPQMGQQQMMGQPQMVQPQMGQPPMGGAHPGVVAPDGHPHQMMQQQQHPQQHHMQYQGMHDPMQGGMDEGPQAKMMRMGNVPVGRYAPMPPPYGAPQDYHPQQGPPMVQMMQQPGPSGYYPQRPGQPTGAVPGPGPQGYMNPQMGMQMGMRAPGVPPQGYMPGRGMAPPQMGQQQPGPNQQQQQQWQQQYHR
FFTPPHIVQLCVRLVDDFADGMTFHDPTVGSGGMLTEAAKYYREAQGGDPSKLTFTGQEINPDIAAIARMNLSLHTLNGEIERGDSLASPGFTDGDDLERFDRVLANFPFSADWAKDDLQDDQYGRFDWHTKLPRADRGDYAFIMHIAEQLKEPDCGDESGGKAAIVIPHGVLFRKHEQRYRQPMLENDLVEAIVGLPENLFQNNSIPSAILVLNTDKPADREGEVQFIHAADEAFYEELSNQNELTDDGLDHIVENFDDWTTE
MSLNRIAFSAAHVVADPLAASDPWLEAAIDWDHTIAYRQRLWDLGLGVAEAMDTAQRGMGLDWPTSLDLIRRSVEAAKAHGPEALVFSGAGTDHLAPEAARSLDDVIRAYEEQVAAVEKVGGRIILMASRALARIGTSAADYETVYGRILSQVREPVIIHWLGDMFDPALAGYWGTRDLDAAMDTAVAIINAHAAKVDGVKISLLDKDKEIAMRRRLDPAVRMYTGDDFNYAELVAGDAQGYSHALLGIFDAIAPAASAALTALAAGDEAGFHDILAPTVPLSRHIFRAPTRFYKTGVVFMAYLNGHQDHFTMVGGQESARSTLHLAELFRLADRAGLLTDPDLAVQRMRAVLAVRGVEAEGHHHHHH
MGSDKIHHHHHHGLDRWMSWKTAPYIYDELQDLPYRQVGVVLGTAKYYRTGVINQYYRYRIQGALNAYNSGKVNYLLLSGDNALQSYNEPMTMRRDLIKGGVDPADIVLDYAGFRTLDSIVRTRKVFDTNDFIIITQRFHCERALFIALHMGIQAQCYAVPSPKDMWSVRLREFGARFGALADLYIFKREPRFLGPLIPIPAQQHDVPDDAQSYPAVTPEQLLELQKEK
MKIIARNKKALFDYSIIERFEAGIVLKGSEVVALRAGRANLKDSFVRIIKNEIFLLNSHISLLHTTHSFYKHEERGARKLLMHRKQIDKLLGKVSIEGYTIVALDLYFNTKNKVKATLALAKGKNLHDKRETLKKKQADLEARAAMKNYK
MGSDKIHHHHHHMILKFVIRMGLTISEKIEEIMSSNESNTTLYNISSLEHLHAIFRAYRPHNGFGVVYRGQADCHWKLLPKAGRQEYLLPDDRDLGVFKDWLDRAIAYENVPNYFIEQLALAQHHGLATRLLDWTINPLIACYFACCSYPDKDGVIYILELPKTFATVDLSMETLKECSEVISYRPRQFSPRILNQGGIFTIHNPPDTTIDIGPGRIALDMPNLVQIILGKNLKHDILEMLSDYGIDERYIYPDLDGLSRSLNHSMMRMVRQRVERIDL

Soluble on expression in E. coli, soluble:
TKEGQIKGKLLLPGGVKTCPVVLIIAGSGPTDMDGNSAIGNLRNNSLKFLAEGLAANGIASLRFDKRGIGTSASAGKEEAKLRFEDYVNDVTGWIDYLAKEKRFTTITVAGHSEGALIGMLACQNRPKVKGYISVAGAGRPAYEIIEAQVAAQQNPEAVRKEVASINGSLKNGKEVSDVPAYLQSLYRASVQPYLISWFKYNPRTVIASVKVPVLIVQGKNDIQVSVEDAELLKKGCPAAELLLIDKMNHVLKDCESKAVQQQMLTYGNPSLPVNSTLIASVSTFVKKLK
MNIQLSPLEARVIGCLIEKEVTTPDHYPLTLNSLTTACNQKSNREPVLNLSEAEVQDTVEGLIARRLVSDESSFNSRTSKYQHRFCNTEFGDLKLNQQELGLICCLLLRGAQTPGELRTRTNRLCTFTDVKETEAVLERLANRDSGALVVKLPREPGKRESRYHHLFCGEVDMAA
MECLKAEFFSPIALFKTPFSIKGIETYPLPPYSTVIGLLYTASGKKWKGERFNISVQGDYEAIFRDYVRFRKYNKKDKKLETLPLEVPLFYNFRLTVHILGDENLLKEFEKALKFPYVFPYLSGGEYPVKITKVKMVACRKEYFDTFNIPKNAYIPENIFTEEFRVSLEGHGVYYRVPSFLISQKPRQHEWVGVYYVQKGTKVSEMELLVDEEGEPVWV
GSAAEVMKKYCSTCDISFNYVKTYLAHKQFYCKNKP
